# Reference: patent publication US20170152300A1 (CSL, published 2017)
# Values joined by “and” are separate entries in the source; they are usually repeats but may differ in a detail not shown here. Equal values may be shown once.
# T1: recombinant Factor VIII (as described in Zollner et al 2013) (Homo sapiens (Human), UniProt P00451 20-2351)
# T1 construct: also called FVIII
# T1 sequence: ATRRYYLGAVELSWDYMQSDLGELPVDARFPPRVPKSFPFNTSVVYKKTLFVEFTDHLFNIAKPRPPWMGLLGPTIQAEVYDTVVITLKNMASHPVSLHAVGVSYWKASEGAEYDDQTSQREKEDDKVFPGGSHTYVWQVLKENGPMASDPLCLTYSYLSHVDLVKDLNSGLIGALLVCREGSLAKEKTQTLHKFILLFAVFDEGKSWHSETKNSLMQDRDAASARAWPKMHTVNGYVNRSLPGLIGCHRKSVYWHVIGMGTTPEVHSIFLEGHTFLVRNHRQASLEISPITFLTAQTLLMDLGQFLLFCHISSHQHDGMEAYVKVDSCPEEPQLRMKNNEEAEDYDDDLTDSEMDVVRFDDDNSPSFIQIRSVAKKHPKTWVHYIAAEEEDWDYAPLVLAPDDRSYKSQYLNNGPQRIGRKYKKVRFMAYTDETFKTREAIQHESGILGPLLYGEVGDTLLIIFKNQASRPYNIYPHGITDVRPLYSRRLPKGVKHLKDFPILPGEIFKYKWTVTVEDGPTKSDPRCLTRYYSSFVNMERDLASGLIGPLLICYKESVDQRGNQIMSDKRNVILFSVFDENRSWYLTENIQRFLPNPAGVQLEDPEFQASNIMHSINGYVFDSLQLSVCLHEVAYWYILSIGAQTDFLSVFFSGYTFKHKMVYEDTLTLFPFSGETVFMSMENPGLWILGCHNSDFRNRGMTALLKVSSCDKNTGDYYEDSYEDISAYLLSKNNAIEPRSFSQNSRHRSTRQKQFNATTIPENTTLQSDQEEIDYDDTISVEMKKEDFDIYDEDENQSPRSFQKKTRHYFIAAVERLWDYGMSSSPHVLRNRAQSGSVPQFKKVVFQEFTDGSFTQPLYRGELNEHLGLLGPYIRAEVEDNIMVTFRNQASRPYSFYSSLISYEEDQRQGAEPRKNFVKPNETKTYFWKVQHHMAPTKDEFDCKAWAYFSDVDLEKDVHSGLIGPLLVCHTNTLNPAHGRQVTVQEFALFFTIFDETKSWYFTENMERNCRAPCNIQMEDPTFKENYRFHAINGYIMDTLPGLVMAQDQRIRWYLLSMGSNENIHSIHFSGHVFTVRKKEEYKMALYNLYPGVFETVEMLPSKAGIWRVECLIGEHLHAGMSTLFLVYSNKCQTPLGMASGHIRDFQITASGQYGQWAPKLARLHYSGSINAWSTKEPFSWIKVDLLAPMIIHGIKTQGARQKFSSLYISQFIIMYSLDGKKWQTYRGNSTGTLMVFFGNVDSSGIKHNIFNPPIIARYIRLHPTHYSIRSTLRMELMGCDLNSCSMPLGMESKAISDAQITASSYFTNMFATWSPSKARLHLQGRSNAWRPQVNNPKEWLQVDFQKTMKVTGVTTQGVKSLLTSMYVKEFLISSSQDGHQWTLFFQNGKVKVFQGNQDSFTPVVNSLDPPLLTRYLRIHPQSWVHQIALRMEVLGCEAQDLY
# B1: Hu-vWF[764-1270]-8His S764P-S766I (other)
# chain: PLICRPPMVKLVCPADNLRAEGLECTKTCQNYDLECMSMGCVSGCLCPPGMVRHENRCVALERCPCFHQGKEYAPGETVKIGCNTCVCRDRKWNCTDHVCDATCSTIGMAHYLTFDGLKYLFPGECQYVLVQDYCGSNPGTFRILVGNKGCSHPSVKCKKRVTILVEGGEIELFDGEVNVKRPMKDETHFEVVESGRYIILLLGKALSVVWDRHLSISVVLKQTYQEKVCGLCGNFDGIQNNDLTSSNLQVEEDPVDFGNSWKVSSQCADTRKVPLDSSPATCHNNIMKQTMVDSSCRILTSDVFQDCNKLVDPEPYLDVCIYDTCSCESIGDCACFCDTIAAYAHVCAQHGKVVTWRTATLCPQSCEERNLRENGYECEWRYNSCAPACQVTCQHPEPLACPVQCVEGCHAHCPPGKILDELLQTCVDPEDCPVCEVAGRRFASGKKVTLNPSDPEHCQICHCDVVNLTCEACQEPGGLVVPPTDAPVSPTTLYVEDISEPPLHDFHHHHHHHH
# Experiments:
# [1] = molecular target: recombinant Factor VIII (as described in Zollner et al 2013) (Homo sapiens (Human)) (UniProt P00451); assay: SPR, anti-His capture
# [2] = molecular target: T1, recombinant Factor VIII (as described …); assay: SPR, anti-His capture
# Method: Binding kinetics were investigated by surface plasmon resonance using a Biacore 4000 biosensor at 37° C. Each mutant was captured from cell culture medium to a density of 40-150RU on a CM-5 sensor chip pre-immobilised with anti-His antibody (14,000 RU). In an initial screening study, FVIII was injected over the captured mutants for 5 minutes at 1 nM and dissociation monitored for 5 minutes.
# All sensorgrams were double referenced by subtraction of signals from a reference spot (containing only immobilised anti His antibody) and from a blank injection. Binding kinetics were determined by fitting the double referenced sensorgrams to a 1:1 kinetic model.
molecule,measurement,setting,value
Hu-vWF[764-1270]-8His dupS764/S764P/S766I,Kd,[1],0.255 nM and 0.199 nM
same,koff,[1],0.00159 s⁻¹ and 0.0025 s⁻¹
same,kon,[1],6.23e+06 M⁻¹ s⁻¹ and 1.25e+07 M⁻¹ s⁻¹
B1,fold decrease in off-rate vs wild type,[2],22 fold
same,fold increase in affinity vs wild type,[2],30 fold
